This assay has as its target PTEN (WT), recombinant insect-cell purified (UniProt P60484). Briefly: SPR. Background: SPR reads the build-up and loss of mass on a sensor chip optically.
For the substance “P-Rex2 (674-683) P-Rex1 sequence-swap mutant”, the fold decrease in affinity against P-Rex2 (WT) was 4 fold. With “P-Rex2 (904-912) P-Rex1 sequence-swap mutant”, the fold decrease in affinity against P-Rex2 (WT) was found to be 7 fold. Next, “P-Rex2 (922-931) P-Rex1 sequence-swap mutant”: 6 fold.

Source of the values: doi:10.1101/2020.04.11.036434.
